The text below walks through data of the FLAb antibody collection (doi:10.7554/elife.23156).

In general, Kd refers to the constant that tells how readily two partners part at equilibrium.

B1: scFv; the commonest letter at each place (parent)
chain 1: EVKLDETGGGLVQPGRPMKLSCVASGFTFSDYWMNWVRQSPEKGLEWVAQIRNKPYNYETYYSDSVKGRFTISRDDSKSSVYLQMNNLRVEDMGIYYCTGSYYGMDYWGQGTSVTVS
chain 2: DVVMTQTPLSLPVSLGDQASISCRSSQSLVHSNGNTYLRWYLQKPGQSPKVLIYKVSNRFSGVPDRFSGSGSGTDFTLKISRVEAEDLGVYFCSQSTHVPWTFGGGTKLEIK

In data set [1] the parent is B1. The data set can be described thus: Kd (Tite-Seq). Conditions: with fluorescein; format: scFv 4-4-20, heavy + light.
In data set [2] the parent is B1. The data set is described as follows: yeast surface expression (ratio to wild type); higher = more expressed. To be noted: format: scFv 4-4-20, heavy + light.

Turning to chain 1 EVKLDETGGGLVQPGRPMKLSCVASGFTFSDYWMNWVRQSPEKGLEWVAQIRNKPYNYETYYSDSVKGRFTISRDDSKSSVYLQMNNLRVEDMGIYYCTTSYYGMDYWGQGTSVTVS chain 2 DVVMTQTPLSLPVSLGDQASISCRSSQSLVHSNGNTYLRWYLQKPGQSPKVLIYKVSNRFSGVPDRFSGSGSGTDFTLKISRVEAEDLGVYFCSQSTHVPWTFGGGTKLEIK [chain 1 G100T], in data set [1], the Kd amounted to 921 nM. For the same variant, the yeast surface expression in data set [2] is 0.994.

With chain 1 EVKLDETGGGLVQPGRPMKLSCVASGFTTCDYWMNWVRQSPEKGLEWVAQIRNKPYNYETYYSDSVKGRFTISRDDSKSSVYLQMNNLRVEDMGIYYCTGSYYGMDYWGQGTSVTVS chain 2 DVVMTQTPLSLPVSLGDQASISCRSSQSLVHSNGNTYLRWYLQKPGQSPKVLIYKVSNRFSGVPDRFSGSGSGTDFTLKISRVEAEDLGVYFCSQSTHVPWTFGGGTKLEIK [chain 1 F29T S30C], the Kd in data set [1] worked out at 39.1 nM. For the same variant, the yeast surface expression in data set [2] was 0.804.

Consider chain 1 EVKLDETGGGLVQPGRPMKLSCVASGFTFSRYWMNWVRQSPEKGLEWVAQIRNKPYNYETYYSDSVKGRFTISRDDSKSSVYLQMNNLRVEDMGIYYCTGSYYGMDYWGQGTSVTVS chain 2 DVVMTQTPLSLPVSLGDQASISCRSSQSLVHSNGNTYLRWYLQKPGQSPKVLIYKVSNRFSGVPDRFSGSGSGTDFTLKISRVEAEDLGVYFCSQSTHVPWTFGGGTKLEIK [chain 1 D31R], for which the Kd in data set [1] is 2.04 nM. Moreover, in data set [2], the yeast surface expression was determined as 0.736.

With chain 1 EVKLDETGGGLVQPGRPMKLSCVASGFTFSDSWMEWQRQSPEKGLEWVAQIRNKPYNYETYYSDSVKGRFTISRDDSKSSVYLQMNNLRVEDMGIYYCTGSYYGMDYWGQGTSVTVS chain 2 DVVMTQTPLSLPVSLGDQASISCRSSQSLVHSNGNTYLRWYLQKPGQSPKVLIYKVSNRFSGVPDRFSGSGSGTDFTLKISRVEAEDLGVYFCSQSTHVPWTFGGGTKLEIK [chain 1 Y32S N35E V37Q], the Kd in data set [1] is at least 10000 nM. Moreover, the yeast surface expression in data set [2] came out at 0.677.

Take chain 1 EVKLDETGGGLVQPGRPMKLSCVASGFTFSDYEMNWYRQSPEKGLEWVAQIRNKPYNYETYYSDSVKGRFTISRDDSKSSVYLQMNNLRVEDMGIYYCTGSYYGMDYWGQGTSVTVS chain 2 DVVMTQTPLSLPVSLGDQASISCRSSQSLVHSNGNTYLRWYLQKPGQSPKVLIYKVSNRFSGVPDRFSGSGSGTDFTLKISRVEAEDLGVYFCSQSTHVPWTFGGGTKLEIK [chain 1 W33E V37Y]: in data set [1], the Kd was at least 10000 nM. The yeast surface expression in data set [2] turned out to be 1.

On to chain 1 EVKLDETGGGLVQPGRPMKLSCVASGFTFSDYTWNWVRQSPEKGLEWVAQIRNKPYNYETYYSDSVKGRFTISRDDSKSSVYLQMNNLRVEDMGIYYCTGSYYGMDYWGQGTSVTVS chain 2 DVVMTQTPLSLPVSLGDQASISCRSSQSLVHSNGNTYLRWYLQKPGQSPKVLIYKVSNRFSGVPDRFSGSGSGTDFTLKISRVEAEDLGVYFCSQSTHVPWTFGGGTKLEIK [chain 1 W33T M34W], for which, in data set [1], the Kd was at least 10000 nM. Also, the yeast surface expression in data set [2] was 0.967.

As for chain 1 EVKLDETGGGLVQPGRPMKLSCVASGFTFSDNWMNWGRQSPEKGLEWVAQIRNKPYNYETYYSDSVKGRFTISRDDSKSSVYLQMNNLRVEDMGIYYCTGSYYGMDYWGQGTSVTVS chain 2 DVVMTQTPLSLPVSLGDQASISCRSSQSLVHSNGNTYLRWYLQKPGQSPKVLIYKVSNRFSGVPDRFSGSGSGTDFTLKISRVEAEDLGVYFCSQSTHVPWTFGGGTKLEIK [chain 1 Y32N V37G], in data set [1], the Kd was found to be 11.3 nM. In data set [2], the yeast surface expression is 2.76.

For the variant chain 1 EVKLDETGGGLVQPGRPMKLSCVASGFTFSDYWWMWVRQSPEKGLEWVAQIRNKPYNYETYYSDSVKGRFTISRDDSKSSVYLQMNNLRVEDMGIYYCTGSYYGMDYWGQGTSVTVS chain 2 DVVMTQTPLSLPVSLGDQASISCRSSQSLVHSNGNTYLRWYLQKPGQSPKVLIYKVSNRFSGVPDRFSGSGSGTDFTLKISRVEAEDLGVYFCSQSTHVPWTFGGGTKLEIK [chain 1 M34W N35M], the Kd in data set [1] was at least 10000 nM. Further, in data set [2], the yeast surface expression worked out at 0.653.

Take chain 1 EVKLDETGGGLVQPGRPMKLSCVASGFPFSDCWMNWVRQSPEKGLEWVAQIRNKPYNYETYYSDSVKGRFTISRDDSKSSVYLQMNNLRVEDMGIYYCTGSYYGMDYWGQGTSVTVS chain 2 DVVMTQTPLSLPVSLGDQASISCRSSQSLVHSNGNTYLRWYLQKPGQSPKVLIYKVSNRFSGVPDRFSGSGSGTDFTLKISRVEAEDLGVYFCSQSTHVPWTFGGGTKLEIK [chain 1 T28P Y32C]: the Kd in data set [1] stood at 6.72 nM. In data set [2], the yeast surface expression came to 0.967.

Consider chain 1 EVKLDETGGGLVQPGRPMKLSCVASGFTFSDYWMNWVRQSPEKGLEWVAQIRNKPYNYETYYSDSVKGRFTISRDDSKSSVYLQMNNLRVEDMGIYYCTGSYYWRDYWGQGTSVTVS chain 2 DVVMTQTPLSLPVSLGDQASISCRSSQSLVHSNGNTYLRWYLQKPGQSPKVLIYKVSNRFSGVPDRFSGSGSGTDFTLKISRVEAEDLGVYFCSQSTHVPWTFGGGTKLEIK [chain 1 G104W M105R], for which, in data set [1], the Kd is at least 10000 nM. In data set [2], the yeast surface expression worked out at 0.484.

Take chain 1 EVKLDETGGGLVQPGRPMKLSCVASGFTFSDYWMNWVRQSPEKGLEWVAQIRNKPYNYETYYSDSVKGRFTISRDDSKSSVYLQMNNLRVEDMGIYYCTGSDYGMQYWGQGTSVTVS chain 2 DVVMTQTPLSLPVSLGDQASISCRSSQSLVHSNGNTYLRWYLQKPGQSPKVLIYKVSNRFSGVPDRFSGSGSGTDFTLKISRVEAEDLGVYFCSQSTHVPWTFGGGTKLEIK [chain 1 Y102D D106Q]: the Kd in data set [1] was at least 10000 nM. In addition, in data set [2], the yeast surface expression came to 0.733.

On to chain 1 EVKLDETGGGLVQPGRPMKLSCVASGFTFSDYWMNWVRQSPEKGLEWVAQIRNKPYNYETYYSDSVKGRFTISRDDSKSSVYLQMNNLRVEDMGIYYCTGKYYGMDYWGQGTSVTVS chain 2 DVVMTQTPLSLPVSLGDQASISCRSSQSLVHSNGNTYLRWYLQKPGQSPKVLIYKVSNRFSGVPDRFSGSGSGTDFTLKISRVEAEDLGVYFCSQSTHVPWTFGGGTKLEIK [chain 1 S101K], for which, in data set [1], the Kd is at least 10000 nM. Also, in data set [2], the yeast surface expression came out at 0.463.
